Laboratory results taken from PMC3785136.

Target: human telomerase reverse transcriptase hTERT (WT) (human) (UniProt O14746)
Experiment: sucrose gradient sedimentation

In the case of “human telomerase reverse transcriptase hTERT (WT) (from UniProt O14746 1-1132) (enzyme)”, the stoichiometry N is reported as 2.
